According to publication PMC11172107:

Target: T1, ArgR-His6 (Vibrio fluvialis 85003) (UniProt A0AAX2LJS0)
T1 sequence: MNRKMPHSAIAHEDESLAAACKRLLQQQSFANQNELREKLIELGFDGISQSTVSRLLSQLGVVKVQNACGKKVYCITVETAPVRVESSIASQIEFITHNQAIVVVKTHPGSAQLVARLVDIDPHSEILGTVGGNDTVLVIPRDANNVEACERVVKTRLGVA
Assay: EMSA
Settings: EMSA: 20 mM Tris/HCl pH 7.6, 50 mM KCl, 1 mM EDTA, 5% glycerol, 200 ng BSA, 500 ng dI-dC, 15 ng probe, 30 C 20 min; footprinting: 5.40 uM ArgR-His6, 40 uL …

For “CCGCAGGCTCTTTAGAATTTCTTTAACGATGAAGTGAAATTCACTTTATCACCATGAATAACAATAAAAGTTTTCACCATATTTATTACAAGTCCTAAGCTTTATTCCACGAAATACGTTGCCATATTGAATAGTATTGCAATAAACGTTTTCTAAATGAGTGAATTGAGGTGTGGG (double strand) [arcD2 probe]”, the binding was “binds”.
